B1: huAb101: "heavy chain variable sequence of huAb101 is provided in SEQ ID NO: 106"; "light chain variable sequence ... in SEQ ID NO: 107" (antibody, V domains shown)
VH: EVQLVESGGGLVKPGGSLRLSCATSGFTFIDYYMSWVRQAPGKGLEWLGFIRNKANRYTTEYSASVKGRFTISRDNSKSILYLQMNSLKTEDTAVYYCTRDRPAWFVYWGQGTLVTVSS
VL: DIVMTQTPLSLPVTPGEPASISCKSSQSLLYSSNQKNYLAWYLQKPGQSPQLLIYWASTRESGVPDRFSGSGSGTDFTLKISRVEAEDVGVYYCQQYYSYPYTFGGGTKVEIK
B2: huAb107: "heavy chain variable sequence of huAb107 is provided in SEQ ID NO: 114"; "light chain variable sequence ... in SEQ ID NO: 112" (antibody, V domains shown)
VH: EVQLVESGGGLVQPGGSLRLSCAASGFTFSDYTMAWVRQAPGKGLEWVATIIYSGRGTYYRDAVKGRFTISRDNAKNTLYLQMNSLRAEDTAVYYCARQSDDTYYYWGYFDYWGQGTMVTVSS
VL: DIVMTQTPLSLPVTPGEPASINCKSSQSLLFSGNQKNYLAWYLQKPGQSPQLLIYWASTRQSGVPDRFSGSGSGTDFTLKISRVEAEDVGIYYCQQYYDVPYTFGQGTKLEIK
B3: huAb105: "heavy chain variable sequence of huAb105 is provided in SEQ ID NO: 111"; "light chain variable sequence ... in SEQ ID NO: 112" (antibody, V domains shown)
VH: EVQLVESGGGLVQPGGSLRLSCAASGFTFSDYTMAWVRQAPGKGLEWVATIIYSGRGTYYRDAVKGRFTISRDNAKNTLYLQMNSLRAEDTAVYYCARQSDHTYYYWGYFDYWGQGTMVTVSS
VL: DIVMTQTPLSLPVTPGEPASINCKSSQSLLFSGNQKNYLAWYLQKPGQSPQLLIYWASTRQSGVPDRFSGSGSGTDFTLKISRVEAEDVGIYYCQQYYDVPYTFGQGTKLEIK
B4: huAb109: "heavy chain variable sequence of huAb109 is provided in SEQ ID NO: 116"; "light chain variable sequence ... in SEQ ID NO: 117" (antibody, V domains shown)
VH: EVQLVESGGGLVQPGGSLRLSCAASGFTFSDYTMAWVRQAPGKGLEWVATIIYDARGTYYRDAVKGRFTISRDNAKNTLYLQMNSLRAEDTAVYYCARQSDDTYYYWGYFDYWGQGTMVTVSS
VL: DIVMTQTPLSLPVTPGEPASINCKSSQSLLFSGNQKNYLAWYLQKPGQSPQLLIYWASTRQSGVPDRFSGSGSGTDFTLKISRVEAEDVGIYYCQQYYSSPYTFGQGTKLEIK
B5: huAb103: "heavy chain variable sequence of huAb103 is provided in SEQ ID NO: 109"; "light chain variable sequence ... in SEQ ID NO: 107" (antibody, V domains shown)
VH: EVQLVESGGGLVKPGGSLRLSCATSGFTFIDYYMSWVRQAPGKGLEWLGFIRNKAYGYTTEYSASVKGRFTISRDNSKSILYLQMNSLKTEDTAVYYCTRDRPAWFVYWGQGTLVTVSS
VL: DIVMTQTPLSLPVTPGEPASISCKSSQSLLYSSNQKNYLAWYLQKPGQSPQLLIYWASTRESGVPDRFSGSGSGTDFTLKISRVEAEDVGVYYCQQYYSYPYTFGGGTKVEIK

Columns and labels:
human CD98 ECD = target: T1, human CD98 ECD (Homo sapiens, UniProt P08195); assay: Biacore surface plasmon resonance binding kinetics (anti-Fc capture); settings: huCD98 ECD
T1 construct: Human CD98 ECD with C-terminal His-tag
T1 sequence (P08195 with tags, fused parts or gaps): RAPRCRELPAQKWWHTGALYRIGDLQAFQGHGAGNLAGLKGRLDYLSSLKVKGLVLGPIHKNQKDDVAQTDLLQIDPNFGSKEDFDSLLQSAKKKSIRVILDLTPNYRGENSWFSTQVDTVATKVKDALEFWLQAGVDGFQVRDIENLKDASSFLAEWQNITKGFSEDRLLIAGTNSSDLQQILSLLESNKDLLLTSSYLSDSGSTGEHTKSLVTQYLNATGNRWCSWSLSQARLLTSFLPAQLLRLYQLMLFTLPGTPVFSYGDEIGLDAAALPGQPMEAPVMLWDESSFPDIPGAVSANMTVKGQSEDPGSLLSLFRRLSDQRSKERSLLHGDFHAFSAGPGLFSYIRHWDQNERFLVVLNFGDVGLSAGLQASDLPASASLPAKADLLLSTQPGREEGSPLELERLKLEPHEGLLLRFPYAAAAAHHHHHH
Protocol: (§1) The binding kinetics of these purified mouse and rat monoclonal anti-CD98 antibodies for purified recombinant CD98 protein (extracellular domain, ECD) were determined by surface plasmon resonance-based measurements made on Biacore T100/T200 instruments (GE Healthcare, Piscataway, N.J.) at 25° C. using an anti-Fc capture assay approach. Binding kinetic measurements were made in the assay buffer HBS-EP+: 10 mM Hepes, pH 7.4, 150 mM NaCl, 3 mM EDTA, 0.05% Tween 20). For example, approximately 8000 RU of anti-Fc (species specific) polyclonal antibody (Thermo Fisher Scientific Inc., Rockford, Ill.) diluted in 10 mM sodium acetate (pH 4.5) was directly immobilized across a CM5 research grade biosensor chip using a standard amine coupling kit according to manufacturer's instructions and procedures at 25 μg/ml. Unreacted moieties on the biosensor surface were blocked with ethanolamine. The test antibody to be captured as a ligand was diluted in running buffer to ˜0.5 μg/mL and injected over anti-Fc surface at a flow rate of 10 μL/min. CD98 binding and dissociation were observed under a continuous flow rate of 80 μL/min. Human and cynomolgus monkey CD98 ECDs, both with a C-terminal His-tag, are used for this study (Table 3). After each cycle the anti-Fc capture surface was regenerated using 10 mM Glycine-HCl, pH 1.5. During the assay, all measurements were referenced against the capture surface alone (i.e., with no captured test antibody) and buffer-only injections (no antigen) were used for double referencing. For kinetic analysis, rate equations derived from the 1:1 Langmuir binding model were fitted simultaneously, globally and with mass transfer term included to multiple referenced antigen binding curves using Biacore T100/T200 Evaluation software.
(§2) The in vitro binding activities of the recombinant anti-CD98 chimeric mAbs were measured against both recombinant CD98 extracellular domain proteins (ECDs) and CD98-expressing cells. Briefly, binding kinetics of anti-CD98 chimera mAbs for human and cynomolgus CD98 ECDs were determined by surface plasmon resonance-based measurements as described in Example 4. Table 10 reported the association and dissociation rate constants for CD98 binding, ka (M^−1 s^−1) and kd (s^−1), and the equilibrium dissociation constant KD (M) of the interaction between antibodies and the target antigen. Binding of anti-CD98 chimera mAbs for CD98 on cell surface was evaluated by flow cytometry against CHO-K1 cell line stably transfected to express human CD98 and 3T12 cell line stably transfected to express cynomolgus monkey CD98.
(§3) The binding kinetics of the recombinant anti-CD98 chimeric antibodies for purified recombinant CD98 protein (extracellular domain, ECD) were determined by surface plasmon resonance-based measurements, as described in the Example 4.

[1] = system: cynomolgus monkey CD98 ECD; assay: as above; settings: cyCD98 ECD
Sequence of cynomolgus monkey CD98 ECD (as listed by the source): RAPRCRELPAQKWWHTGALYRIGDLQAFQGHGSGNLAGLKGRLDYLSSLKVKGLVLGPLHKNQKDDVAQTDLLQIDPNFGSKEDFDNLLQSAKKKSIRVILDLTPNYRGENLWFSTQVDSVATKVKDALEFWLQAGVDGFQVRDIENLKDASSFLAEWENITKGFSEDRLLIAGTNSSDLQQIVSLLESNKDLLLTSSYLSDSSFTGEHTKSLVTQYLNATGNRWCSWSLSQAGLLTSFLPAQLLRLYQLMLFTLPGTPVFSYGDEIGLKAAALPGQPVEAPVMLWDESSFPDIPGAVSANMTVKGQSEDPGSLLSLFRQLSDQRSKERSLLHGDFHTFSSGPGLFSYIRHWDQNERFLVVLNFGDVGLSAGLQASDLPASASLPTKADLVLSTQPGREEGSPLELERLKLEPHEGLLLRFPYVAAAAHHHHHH
Protocol: as §1, §2, §3

human CD98 = target: T2, human CD98 (Homo sapiens, UniProt P08195); assay: Binding of humanized antibodies to human CD98; settings: humanized framework engineered antibodies
T2 sequence (P08195 1-630 isoform P08195-1): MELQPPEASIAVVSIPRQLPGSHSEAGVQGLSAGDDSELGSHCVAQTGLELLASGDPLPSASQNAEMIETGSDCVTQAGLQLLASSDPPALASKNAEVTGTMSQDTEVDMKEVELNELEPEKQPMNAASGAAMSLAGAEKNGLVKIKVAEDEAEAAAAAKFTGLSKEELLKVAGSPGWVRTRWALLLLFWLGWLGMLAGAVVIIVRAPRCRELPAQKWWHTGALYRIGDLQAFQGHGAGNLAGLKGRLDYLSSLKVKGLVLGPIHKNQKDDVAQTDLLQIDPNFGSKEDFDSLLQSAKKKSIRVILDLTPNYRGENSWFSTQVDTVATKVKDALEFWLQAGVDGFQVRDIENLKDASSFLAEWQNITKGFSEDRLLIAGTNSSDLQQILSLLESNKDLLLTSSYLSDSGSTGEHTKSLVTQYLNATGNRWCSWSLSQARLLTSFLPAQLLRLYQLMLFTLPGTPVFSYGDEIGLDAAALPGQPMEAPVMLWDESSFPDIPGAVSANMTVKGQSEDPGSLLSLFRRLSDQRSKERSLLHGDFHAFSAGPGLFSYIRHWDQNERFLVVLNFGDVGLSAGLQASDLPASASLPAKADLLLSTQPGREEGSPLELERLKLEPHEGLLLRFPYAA

[2] = Conjugation of anti-CD98 mAbs with Bcl-xL inhibitor synthons (precipitation, DAR, recovery, aggregation); settings: Method E
Protocol: Method A. A solution of BOND-BREAKER tris(2-carboxyethyl)phosphine (TCEP) solution (10 mM, 0.017 mL) was added to a solution of antibody (10 mg/mL, […]) preheated to 37° C. The reaction mixture was kept at 37° C. for 1 hour. The solution of reduced antibody was added to a solution of synthon (3.3 mM, 0.160 mL in DMSO) and gently mixed for 30 minutes. The reaction solution was loaded onto a desalting column (PD10, washed with DPBS 3x before use), followed by DPBS (1.6 mL) and eluted with additional DPBS (3 mL). The purified ADC solution was filtered through a 0.2 micron, low protein-binding 13 mm syringe-filter and stored at 4° C.
Method E. A solution of BOND-BREAKER tris(2-carboxyethyl)phosphine (TCEP) solution (10 mM, 0.017 mL) was added to the solution of antibody (10 mg/mL, 1 mL) at room temperature. The reaction mixture was heated to 37° C. for 75 minutes. The solution of reduced antibody cooled to room temperature and was added to a solution of synthon (10 mM, 0.040 mL in DMSO) followed by addition of boric buffer (0.1 mL, 1M, pH 8). The reaction solution was let to stand for 3 days at room temperature, loaded onto a desalting column (PD10, washed with DPBS 3×5 mL before use), followed by DPBS (1.6 mL) and eluted with additional DPBS (3 mL). The purified ADC solution was filtered through a 0.2 micron, low protein-binding 13 mm syringe-filter and stored at 4° C.

Molecule | ka (human CD98 ECD) [M⁻¹ s⁻¹] | kd (human CD98 ECD) [s⁻¹] | ka [1] [M⁻¹ s⁻¹] | kd [1] [s⁻¹] | binding to human CD98 (human CD98) | % Aggregates by SEC ([2]; conjugation with synthon CZ) [%] | DAR by MS ([2]; conjugation with synthon CZ) | % Aggregates by SEC ([2]; conjugation with synthon TX) [%] | DAR by MS ([2]; conjugation with synthon TX)
B1 | 290000 | 0.0018 | 30000 | 0.00067 | maintained binding | 1.8 | 4.5 | 0.3 | 3.5
B2 | 110000 | 3.8e-05 | 33000 | 8.7e-05 | maintained binding | 1.9 | 2.2 | 1.5 | 3.1
B3 | 140000 | 2.4e-05 | 38000 | 5.3e-05 | maintained binding | – | 1.2 | 0.6 | 1.7
B4 | 160000 | 0.00017 | 26000 | 0.00031 | maintained binding | 2.5 | 2.1 | 1.0 | 2.9
B5 | 180000 | 0.00059 | 31000 | 0.00044 | maintained binding | 15.9 | 4.4 | 0.9 | 3.8

— US20230120736A1, “ANTI-CD98 ANTIBODIES AND ANTIBODY DRUG CONJUGATES” (AbbVie Inc., priority 2016, published 2023)
